Measured values published in the supplement of paper PMC10201428.
± gives the standard deviation of the averaged measurements.

Key:
[1] = tested on: VchCAST RNA-guided transposition machinery (E. coli BL21(DE3) host, lacZ target); assay: relative integration efficiency (T-LR orientation) vs wild-type transposon end (log2 (normalized fold change)); transposon end mutated: right end (5 bp flank + 75 bp right end); higher = more efficient transposition
Summary of the method: (§1)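 In E. coli BL21(DE3), a T7-driven effector plasmid was paired with a pUC57 mini-transposon donor containing 1549 left-end or 1849 right-end barcoded transposon variants. Cells grew on plates with 0.1 mM IPTG at 37°C for 18 h. Relative integration efficiency was derived from Illumina reads of genomic integration junctions against input plasmids, as a log-transformed output/input barcode fold change normalised to reference barcodes.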

[2] = tested on: VchCAST RNA-guided transposition machinery (E. coli BL21(DE3) host, lacZ target); assay: relative integration efficiency (T-RL orientation) vs wild-type transposon end (log2 (normalized fold change)); transposon end mutated: right end (5 bp flank + 75 bp right end); higher = more efficient transposition
Summary of the method: as §1

Row | Sequence | relative integration efficiency (log2) [1] | relative integration efficiency (log2) [2]
1 | ACATTTGTTGATACAACCATAAAATGATAATTACACCCATAAATTGATAATTATCACACCCATCCCGGTCGCGGTAAGAGGATCATAGTCAGACCAACATTGCTACGACCCGTATTCGCACCGACAC | 2.36 ± 0.21 | -0.648 ± 0.11
2 | ACATTTGTTGATACAACCAATAAATGATAATTACCCCCATAAATTGATAATTGTGACACCGAATTTAACTATAACGCTCTGATCATAGTCAGACCAACATTGCTACGACCCGTATTCGCACCGACAC | 1.59 ± 0.12 | -2.18 ± 0.42
3 | ACATTTGTTGATACAACCATAAAAGGATAATTACACCCATAAATTGATAATTATCACACCCCATTTAACTATAACGCTCTGATCATAGTCAGACCAACATTGCTACGACCCGTATTCGCACCGACAC | 2.32 ± 0.013 | -1.31 ± 0.2
4 | ACATTTGTTGAATCAACCATAAAATGATAATTACACCCATAAATTGATAATTATCACACCCATAAATTGATATTGCCTCTGATCATAGTCAGACCAACATTGCTACGACCCGTATTCGCACCGACAC | 0.00973 ± 0.13 | 0.38 ± 0.14
5 | ACATTTGTTGATACACCCATAAATTGATATTGCCAACCATATATTGATATCTCTCACAACCATATATTGATATCTCCTCTGATCATAGTCAGACCAACATTGCTACGACCCGTATTCGCACCGACAC | -0.214 ± 0.48 | -1.29 ± 0.34
6 | CGCGCTGTTGATACAACCATAAAATGATAATTACACCCATAAATTGATAATTATCACACCCATAAATTGATATTGCCTCTGATCATAGTCAGACCAACATTGCTACGACCCGTATTCGCACCGACAC | 0.747 ± 0.2 | 0.101 ± 0.1
7 | ACATTTGTTGATACAACCATAAAAGGATAATTACCCCCATAAATTGATAATTATCCCACCCAATTTAACTATAACGCTCTGATCATAGTCAGACCAACATTGCTACGACCCGTATTCGCACCGACAC | 2.19 ± 0.4 | -0.765 ± 0.32
8 | ACATTTGTTGATACAACCATTTTTTGATAATTACACCCATTTTATGATAATTATCACACCCATTTTATGATATTGCCTCTGATCATAGTCAGACCAACATTGCTACGACCCGTATTCGCACCGACAC | -1.01 ± 0.052 | -1.61 ± 0.23
9 | ACATTTGTTGATACAACCATAAAGTGATATTTACAACCATATATTGATATCTCTCACACCCATAAATTGATAATTACTCTGATCATAGTCAGACCAACATTGCTACGACCCGTATTCGCACCGACAC | 0.444 ± 0.39 | 0.065 ± 0.054
10 | ACATTTGTTGATACAACCATAAAGTGATATTTACAACCATAAAATGATAATTATCACAACCATAAAATGATAATTACTCTGATCATAGTCAGACCAACATTGCTACGACCCGTATTCGCACCGACAC | 0.0497 ± 0.074 | 0.174 ± 0.1
11 | ACATTTGTTGATACAACCATAAAATGATAATTAATAATTATTTATAATCACACCCATAAATTGATAATTATCAACAAACGCCCGGTCGCGGTACTCTGATCATAGTCAGACCAACATTGCTACGACC | 1.25 ± 0.18 | -2.09 ± 0.28
12 | ACATTTGTTGATACAACCATATATTGATATCTCCACCCATAAATTGATAATTATCACAACCATAAGTTGATATTTTCTCTGATCATAGTCAGACCAACATTGCTACGACCCGTATTCGCACCGACAC | 0.056 ± 0.33 | -0.316 ± 0.1
13 | ACATTTGTTGATACAACCATAAGTTGATATTTTCAACCATATATTGATATCTCTCAGTGGGTATTTAACTATAACGCTCTGATCATAGTCAGACCAACATTGCTACGACCCGTATTCGCACCGACAC | 2.4 ± 0.039 | -1.15 ± 0.24
14 | ACATTTGTTGATACAACCATAAAATGATAATTACTCTGATCATAGTCAGCACCCATAAATTGATAATTATCAGTGGGTATTTAACTATAACGACCAACATTGCTACGACCCGTATTCGCACCGACAC | 0.537 ± 0.24 | -2.61 ± 0.47
15 | ACATTTGTTGATACAACCATAAAATGATAAGGCAACCCATAAATTGATAATTATCACACCCATAAATTGATATTGCCTCTGATCATAGTCAGACCAACATTGCTACGACCCGTATTCGCACCGACAC | -0.414 ± 0.36 | -0.5904 ± 0.00039
16 | ACATTTGTTGATACAACCATAAAATGATAATTACACCCATAAATTGATAATTATCACACCCATAAATTGATATTGCTTATGATCATAGTCAGACCAACATTGCTACGACCCGTATTCGCACCGACAC | -0.462 ± 0.31 | 0.0482 ± 0.094
17 | ACATTTGTTGATACAACCATATATTGATATCTCCAACCATAAAGTGATATTTATCAGTGGGTATTTAACTATAACGCTCTGATCATAGTCAGACCAACATTGCTACGACCCGTATTCGCACCGACAC | 2.59 ± 0.059 | -0.927 ± 0.29
18 | ACATTTGTTGATACAACCATAAAATGATAATTACTCTGATCATAGTCAGACACCCATAAATTGATAATTATCAGTGGGTATTTAACTATAACGCCAACATTGCTACGACCCGTATTCGCACCGACAC | 1.66 ± 0.32 | -1.71 ± 0.23

Row | Sequence | relative integration efficiency (log2) [1] | relative integration efficiency (log2) [2]
19 | ACATTTGTTGATACAACCATCAAATGATAATTACACCCCTACATTGATAATTATCACACCCAATTTAACTATAACGCTCTGATCATAGTCAGACCAACATTGCTACGACCCGTATTCGCACCGACAC | -1.57 ± 0.21 | -4.12 ± 0.053
20 | ACATTTGTTGATACAACCATAAAATGATAATTAATAATTATTTATAATCCACCCATAAATTGATAATTATCAACAAACGCCCGGTCGCGGTACTCTGATCATAGTCAGACCAACATTGCTACGACCC | 1.24 ± 0.42 | -2.37 ± 0.16
21 | ACATTTGTTGATACAACACTAAAATGATAATTACACCCATAAATTGATAATTATCACACCCATAAATTGATATTGCCTCTGATCATAGTCAGACCAACATTGCTACGACCCGTATTCGCACCGACAC | -2.04 ± 0.74 | -1.85 ± 0.15
22 | ACATTTGTTGATACAACCATAAAATCATTATTACACCCATTAATTGATAATTATCACACCCAATTTAACTATAACGCTCTGATCATAGTCAGACCAACATTGCTACGACCCGTATTCGCACCGACAC | 0.129 ± 0.18 | -3.73 ± 0.33
23 | ACATTTGTTGATACCACCATAAAATGATAATTCCACCCATAAATTGATAATTATCACACCCAATTTAACTATAACGCTCTGATCATAGTCAGACCAACATTGCTACGACCCGTATTCGCACCGACAC | 2.52 ± 0.15 | -1.1 ± 0.17
24 | ACATTTGTTGATACAACCATAAAATGATAATTACCCCCATAAATTGATAATTATCACACCCCATTTAACTATAACGCTCTGATCATAGTCAGACCAACATTGCTACGACCCGTATTCGCACCGACAC | 2.089 ± 0.0067 | -0.917 ± 0.1
25 | ACATTTGTTGATACAACCATAAAATGATAATTACACCCATAAAAACTTAATTATCACACCCATAAATTGATATTGCCTCTGATCATAGTCAGACCAACATTGCTACGACCCGTATTCGCACCGACAC | -0.52 ± 0.069 | -0.679 ± 0.12
26 | ACATTTGTTCATCCAACCATAAAATGATAATTACACCCATAAATGGATCATTATCACACCCAATTTAACTATAACGCTCTGATCATAGTCAGACCAACATTGCTACGACCCGTATTCGCACCGACAC | -1.01 ± 0.52 | -2.36 ± 0.26
27 | ACATTTGTTGATACAACCATAAAATGATAATTACACCCATAAATTGATCATTATCACCCCCAATTTAACTATAACGCTCTGATCATAGTCAGACCAACATTGCTACGACCCGTATTCGCACCGACAC | 1.9 ± 0.065 | -1.35 ± 0.22
28 | ACATTGGTGGATACAACCATAAAATGATAATTACACCCATAAATTGATCATTATCACACCCAATTTAACTATAACGCTCTGATCATAGTCAGACCAACATTGCTACGACCCGTATTCGCACCGACAC | -6.549 ± 0.042 | -6.97 ± 0.42
29 | ACATTTGTTGATACAACCATAAAATGATAATTACACCCATAAATTGATAAAATACACACCCATAAATTGATATTGCCTCTGATCATAGTCAGACCAACATTGCTACGACCCGTATTCGCACCGACAC | -0.0186 ± 0.38 | -0.37 ± 0.071
30 | ACATTTGTTGATACAACCATAAAATGATAATTAGTCCCATAAATTGATAATTATCACACCCATAAATTGATATTGCCTCTGATCATAGTCAGACCAACATTGCTACGACCCGTATTCGCACCGACAC | -0.924 ± 0.37 | -0.921 ± 0.049
31 | ACATTTGTCGATACAACCCTAAAATGATAATTACACCCATAAATGGATCATTATCACACCCAATTTAACTATAACGCTCTGATCATAGTCAGACCAACATTGCTACGACCCGTATTCGCACCGACAC | -1.24 ± 0.25 | -4.03 ± 0.13
32 | ACATTTGTTGATACAACCATAAAATGATAATTACACCCATAAATTGATAATTTACACACCCATAAATTGATATTGCCTCTGATCATAGTCAGACCAACATTGCTACGACCCGTATTCGCACCGACAC | 0.268 ± 0.15 | -0.0701 ± 0.25
33 | ACATTTGTTGATACAACCATAAAATGATAATTACTCTGATCATAGTCACACCCATAAATTGATAATTATCAGTGGGTATTTAACTATAACGGACCAACATTGCTACGACCCGTATTCGCACCGACAC | -0.9229 ± 0.0035 | -3.34 ± 0.27
34 | ACATTTGTTGATACAACCATAAAATGATAATTACACCCATAAATTGATAATTATCAACAAACGCCCGGTCGCGGTACTCTGATCATAGTCAGACCAACATTGCTACGACCCGTATTCGCACCGACAC | 2.66 ± 0.038 | -0.287 ± 0.0067
35 | ACATTTGTTGATACACCCATAAATTGATAATTACAACCATAAGTTGATATTTTTCACAACCATAAAGTGATATTTACTCTGATCATAGTCAGACCAACATTGCTACGACCCGTATTCGCACCGACAC | -0.228 ± 0.18 | -0.613 ± 0.13
